Reference: patent US20220195407, “OPTIMIZATION OF ENGINEERED MEGANUCLEASES FOR RECOGNITION SEQUENCES” (Precision BioSciences, Inc., published 2022)

What was measured:
Assay in all cases: cell_activity; CHO iGFFP reporter
LOX 3-4m.2330 = biological target: T1, LOX 3-4m.2330 (artificial (I-CreI derived))
T1 chain: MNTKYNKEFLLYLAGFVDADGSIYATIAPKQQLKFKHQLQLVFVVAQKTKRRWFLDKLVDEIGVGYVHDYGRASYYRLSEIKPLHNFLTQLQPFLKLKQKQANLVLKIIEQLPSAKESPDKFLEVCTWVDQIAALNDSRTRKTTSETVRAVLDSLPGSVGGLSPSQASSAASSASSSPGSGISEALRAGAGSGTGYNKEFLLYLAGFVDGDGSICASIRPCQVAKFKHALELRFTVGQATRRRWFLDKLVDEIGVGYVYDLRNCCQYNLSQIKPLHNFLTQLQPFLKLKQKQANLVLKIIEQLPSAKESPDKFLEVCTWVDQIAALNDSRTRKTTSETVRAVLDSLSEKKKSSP
Description: (§1) A CHO cell reporter system (see WO/2012/167192, FIG. 3) was used to determine whether the engineered meganucleases generated in these studies could recognize and cleave the modified LOX 3-4 recognition sequences in Table 87. To perform the assay, a pair of CHO cell reporter lines were produced, which carried a non-functional Green Fluorescent Protein (GFP) gene expression cassette integrated into the genome of the cell. The GFP gene in each cell line was interrupted by a pair of recognition sequences such that intracellular cleavage of either recognition sequence by a meganuclease would stimulate a homologous recombination event resulting in a functional GFP gene. In both cell lines, one of the recognition sequences was derived from the LOX 3-4 recognition sequence (i.e., those sequences disclosed in Table 87), and the second recognition sequence was specifically recognized by a control meganuclease called “CHO 23/24.” CHO reporter cells comprising a recognition sequence derived from the LOX 3-4 recognition sequence and the CHO 23/24 recognition sequence are referred to herein as “test cells.”
(§2) Novel engineered meganucleases derived from the LOX 3-4x.109 meganuclease were prepared by making amino acid substitutions at one or more positions in the first subunit and one or more positions in the second subunit. These engineered meganucleases were then evaluated for cleavage of the LOX 3-4 recognition sequence modified to have an ATAT center sequence (SEQ ID NO: 200) in the CHO reporter assay according to Example 1.

LOX 3-4m.2313 = biological target: T2, LOX 3-4m.2313 (artificial (I-CreI derived))
T2 chain: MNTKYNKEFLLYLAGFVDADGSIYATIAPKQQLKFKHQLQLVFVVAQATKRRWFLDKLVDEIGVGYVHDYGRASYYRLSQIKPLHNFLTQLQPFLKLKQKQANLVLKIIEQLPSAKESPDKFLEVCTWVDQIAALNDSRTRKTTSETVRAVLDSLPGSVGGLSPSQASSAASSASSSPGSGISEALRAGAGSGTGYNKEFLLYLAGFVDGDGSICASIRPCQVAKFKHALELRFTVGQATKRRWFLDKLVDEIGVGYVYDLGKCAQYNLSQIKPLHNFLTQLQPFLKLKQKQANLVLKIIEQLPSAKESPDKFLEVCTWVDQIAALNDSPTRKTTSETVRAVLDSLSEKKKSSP
Description: as §1, §2

LOX 3-4m.2329 = biological target: T3, LOX 3-4m.2329 (artificial (I-CreI derived))
T3 chain: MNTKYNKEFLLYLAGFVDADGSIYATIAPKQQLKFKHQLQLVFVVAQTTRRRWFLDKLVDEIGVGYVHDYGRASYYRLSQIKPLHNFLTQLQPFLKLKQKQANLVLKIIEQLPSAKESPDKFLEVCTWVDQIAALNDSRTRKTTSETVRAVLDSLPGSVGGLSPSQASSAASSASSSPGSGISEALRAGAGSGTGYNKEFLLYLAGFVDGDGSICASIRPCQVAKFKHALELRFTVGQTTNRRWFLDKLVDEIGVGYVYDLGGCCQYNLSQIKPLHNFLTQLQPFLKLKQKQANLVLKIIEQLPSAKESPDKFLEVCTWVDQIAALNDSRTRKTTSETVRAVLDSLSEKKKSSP
Description: as §1, §2

LOX 3-4m.2248 = biological target: T4, LOX 3-4m.2248 (artificial (I-CreI derived))
T4 chain: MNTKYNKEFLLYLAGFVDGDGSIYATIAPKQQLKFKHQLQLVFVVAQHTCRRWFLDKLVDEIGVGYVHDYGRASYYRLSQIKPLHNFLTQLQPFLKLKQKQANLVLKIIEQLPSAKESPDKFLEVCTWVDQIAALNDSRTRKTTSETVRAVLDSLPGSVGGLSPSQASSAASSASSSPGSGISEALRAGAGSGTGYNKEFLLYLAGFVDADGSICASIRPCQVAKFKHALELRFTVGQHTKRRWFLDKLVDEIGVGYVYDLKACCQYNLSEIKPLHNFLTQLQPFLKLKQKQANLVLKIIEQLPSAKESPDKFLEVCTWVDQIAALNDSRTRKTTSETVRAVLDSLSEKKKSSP
Description: as §1, §2

LOX 3-4m.1506 = biological target: T5, LOX 3-4m.1506 (artificial (I-CreI derived))
T5 chain: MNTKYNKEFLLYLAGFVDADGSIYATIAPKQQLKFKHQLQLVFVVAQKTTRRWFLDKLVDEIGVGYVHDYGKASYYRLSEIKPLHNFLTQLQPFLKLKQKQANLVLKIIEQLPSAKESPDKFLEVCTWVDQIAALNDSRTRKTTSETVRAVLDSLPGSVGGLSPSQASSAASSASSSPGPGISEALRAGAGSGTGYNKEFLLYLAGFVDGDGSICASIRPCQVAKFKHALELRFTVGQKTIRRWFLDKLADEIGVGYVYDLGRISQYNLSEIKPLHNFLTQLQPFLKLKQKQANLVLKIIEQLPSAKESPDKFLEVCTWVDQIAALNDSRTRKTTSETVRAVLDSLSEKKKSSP
Description: as §1
as §2, with “ATGA” for “ATAT”, “220)” for “200)”

LOX 3-4m.1500 = biological target: T6, LOX 3-4m.1500 (artificial (I-CreI derived))
T6 chain: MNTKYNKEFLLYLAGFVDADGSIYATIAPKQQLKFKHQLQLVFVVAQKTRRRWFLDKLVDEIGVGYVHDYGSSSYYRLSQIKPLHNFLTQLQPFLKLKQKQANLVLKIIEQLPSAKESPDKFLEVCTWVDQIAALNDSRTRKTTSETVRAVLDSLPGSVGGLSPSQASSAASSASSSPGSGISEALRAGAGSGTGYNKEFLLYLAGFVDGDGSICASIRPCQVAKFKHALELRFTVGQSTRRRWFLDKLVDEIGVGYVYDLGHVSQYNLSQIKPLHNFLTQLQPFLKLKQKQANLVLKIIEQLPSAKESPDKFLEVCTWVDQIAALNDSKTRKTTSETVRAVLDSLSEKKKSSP
Description: as §1
as §2, with “ATGA” for “ATAT”, “220)” for “200)”

LOX 3-4m.1421 = biological target: T7, LOX 3-4m.1421 (artificial (I-CreI derived))
T7 chain: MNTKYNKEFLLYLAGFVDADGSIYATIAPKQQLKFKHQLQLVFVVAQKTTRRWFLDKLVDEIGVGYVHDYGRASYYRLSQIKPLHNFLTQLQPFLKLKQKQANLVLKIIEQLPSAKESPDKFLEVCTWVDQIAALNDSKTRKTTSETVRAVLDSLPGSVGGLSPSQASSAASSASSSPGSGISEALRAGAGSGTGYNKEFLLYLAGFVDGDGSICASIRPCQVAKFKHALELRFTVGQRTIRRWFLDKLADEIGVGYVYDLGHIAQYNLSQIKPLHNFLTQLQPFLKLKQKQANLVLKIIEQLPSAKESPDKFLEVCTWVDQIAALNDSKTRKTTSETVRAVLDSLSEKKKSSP
Description: as §1
as §2, with “ATGA” for “ATAT”, “220)” for “200)”

LOX 3-4m.1486 = biological target: T8, LOX 3-4m.1486 (artificial (I-CreI derived))
T8 chain: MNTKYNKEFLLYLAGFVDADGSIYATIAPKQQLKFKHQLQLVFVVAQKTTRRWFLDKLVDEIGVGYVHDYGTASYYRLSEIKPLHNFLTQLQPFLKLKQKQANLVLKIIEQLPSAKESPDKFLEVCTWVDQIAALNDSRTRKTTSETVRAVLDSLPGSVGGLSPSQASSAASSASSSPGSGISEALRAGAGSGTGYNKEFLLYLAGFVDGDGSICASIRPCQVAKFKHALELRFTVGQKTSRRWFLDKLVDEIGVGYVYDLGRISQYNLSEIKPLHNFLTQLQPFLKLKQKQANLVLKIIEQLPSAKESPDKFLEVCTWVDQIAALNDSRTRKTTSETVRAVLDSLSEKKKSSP
Description: as §1
as §2, with “ATGA” for “ATAT”, “220)” for “200)”

LOX 3-4m.1875 = biological target: T9, LOX 3-4m.1875 (artificial (I-CreI derived))
T9 chain: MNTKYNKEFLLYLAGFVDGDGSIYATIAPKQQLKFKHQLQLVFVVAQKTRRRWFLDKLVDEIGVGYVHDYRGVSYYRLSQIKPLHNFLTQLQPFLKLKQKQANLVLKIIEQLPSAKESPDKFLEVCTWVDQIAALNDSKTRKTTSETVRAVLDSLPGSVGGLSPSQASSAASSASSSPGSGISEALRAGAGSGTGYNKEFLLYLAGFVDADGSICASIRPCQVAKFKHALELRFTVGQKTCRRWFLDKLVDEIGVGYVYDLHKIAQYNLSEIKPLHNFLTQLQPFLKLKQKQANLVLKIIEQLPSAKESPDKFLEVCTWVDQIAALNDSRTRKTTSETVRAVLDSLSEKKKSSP
Description: as §1
as §2, with “a GCAA” for “an ATAT”, “267)” for “200)”

LOX 3-4m.1854 = biological target: T10, LOX 3-4m.1854 (artificial (I-CreI derived))
T10 chain: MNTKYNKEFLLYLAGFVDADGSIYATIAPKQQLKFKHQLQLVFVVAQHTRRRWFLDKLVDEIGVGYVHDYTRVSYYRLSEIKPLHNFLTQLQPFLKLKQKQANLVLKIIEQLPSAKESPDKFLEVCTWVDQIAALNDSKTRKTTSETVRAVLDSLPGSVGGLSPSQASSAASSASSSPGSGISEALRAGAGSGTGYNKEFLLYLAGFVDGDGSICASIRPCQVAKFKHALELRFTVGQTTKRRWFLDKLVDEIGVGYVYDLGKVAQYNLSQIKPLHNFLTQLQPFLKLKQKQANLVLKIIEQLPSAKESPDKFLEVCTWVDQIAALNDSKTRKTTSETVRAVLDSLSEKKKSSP
Description: as §1
as §2, with “a GCAA” for “an ATAT”, “267)” for “200)”

LOX 3-4m.1868 = biological target: T11, LOX 3-4m.1868 (artificial (I-CreI derived))
T11 chain: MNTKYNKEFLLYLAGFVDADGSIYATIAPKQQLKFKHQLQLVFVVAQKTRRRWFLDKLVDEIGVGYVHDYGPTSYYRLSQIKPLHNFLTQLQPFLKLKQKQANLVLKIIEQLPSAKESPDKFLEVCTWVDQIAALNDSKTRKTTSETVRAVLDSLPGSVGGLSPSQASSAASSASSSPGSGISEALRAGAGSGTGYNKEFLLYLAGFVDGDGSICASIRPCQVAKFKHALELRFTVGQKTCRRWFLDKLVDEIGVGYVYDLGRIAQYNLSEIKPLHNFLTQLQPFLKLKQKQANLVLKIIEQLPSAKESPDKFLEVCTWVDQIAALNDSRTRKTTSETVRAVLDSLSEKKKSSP
Description: as §1
as §2, with “a GCAA” for “an ATAT”, “267)” for “200)”

LOX 3-4m.1789 = biological target: T12, LOX 3-4m.1789 (artificial (I-CreI derived))
T12 chain: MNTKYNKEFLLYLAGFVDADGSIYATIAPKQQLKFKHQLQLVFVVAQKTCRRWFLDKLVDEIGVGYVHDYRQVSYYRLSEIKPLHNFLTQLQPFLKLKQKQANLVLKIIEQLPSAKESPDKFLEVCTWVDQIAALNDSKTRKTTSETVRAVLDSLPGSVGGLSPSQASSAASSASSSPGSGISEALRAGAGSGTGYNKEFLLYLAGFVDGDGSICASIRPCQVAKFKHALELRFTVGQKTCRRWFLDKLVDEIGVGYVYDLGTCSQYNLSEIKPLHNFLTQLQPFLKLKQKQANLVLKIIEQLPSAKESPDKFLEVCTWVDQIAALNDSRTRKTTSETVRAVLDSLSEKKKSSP
Description: as §1
as §2, with “a GCAA” for “an ATAT”, “267)” for “200)”

B1: LOX 3-4 ATAT (dsDNA)
DNA 1: GTATAGCATATATTATACGAAG
DNA 2: CTTCGTATAATATATGCTATAC
In the case of B1, the activity (LOX 3-4m.2330) is reported as 13.9 % GFP, the activity (LOX 3-4m.2313) is reported as 13.1 % GFP and the activity (LOX 3-4m.2329) is reported as 14.9 % GFP. The activity (LOX 3-4m.2248) was 13.8 % GFP.

B2: LOX 3-4 ATGA (dsDNA)
DNA 1: GTATAGCATATGATATACGAAG
DNA 2: CTTCGTATATCATATGCTATAC
B2 gave an activity (LOX 3-4m.1506) of 8.2 % GFP, an activity (LOX 3-4m.1500) of 3.6 % GFP and an activity (LOX 3-4m.1421) of 8.37 % GFP. The activity (LOX 3-4m.1486) was 9.23 % GFP.

B3: LOX 3-4 GCAA (dsDNA)
DNA 1: GTATAGCATGCAATATACGAAG
DNA 2: CTTCGTATATTGCATGCTATAC
B3 gave an activity (LOX 3-4m.1875) of 8.14 % GFP, an activity (LOX 3-4m.1854) of 7.67 % GFP and an activity (LOX 3-4m.1868) of 7.56 % GFP. It also gave an activity (LOX 3-4m.1789) of 8.9 % GFP.
